Source: PMC2853121

Key:
iC3b [1] = target: T1, iC3b (Homo sapiens, UniProt P01024;P01024;P01024 23-667;749-1303;1321-1663); test: EMSA
C3b = C3b (Homo sapiens, UniProt P01024;P01024 23-667;749-1663); test: filter binding
iC3b [2] = target: T1, iC3b; test: filter binding

T1 sequence (P01024 23-667, chain 1 of 3): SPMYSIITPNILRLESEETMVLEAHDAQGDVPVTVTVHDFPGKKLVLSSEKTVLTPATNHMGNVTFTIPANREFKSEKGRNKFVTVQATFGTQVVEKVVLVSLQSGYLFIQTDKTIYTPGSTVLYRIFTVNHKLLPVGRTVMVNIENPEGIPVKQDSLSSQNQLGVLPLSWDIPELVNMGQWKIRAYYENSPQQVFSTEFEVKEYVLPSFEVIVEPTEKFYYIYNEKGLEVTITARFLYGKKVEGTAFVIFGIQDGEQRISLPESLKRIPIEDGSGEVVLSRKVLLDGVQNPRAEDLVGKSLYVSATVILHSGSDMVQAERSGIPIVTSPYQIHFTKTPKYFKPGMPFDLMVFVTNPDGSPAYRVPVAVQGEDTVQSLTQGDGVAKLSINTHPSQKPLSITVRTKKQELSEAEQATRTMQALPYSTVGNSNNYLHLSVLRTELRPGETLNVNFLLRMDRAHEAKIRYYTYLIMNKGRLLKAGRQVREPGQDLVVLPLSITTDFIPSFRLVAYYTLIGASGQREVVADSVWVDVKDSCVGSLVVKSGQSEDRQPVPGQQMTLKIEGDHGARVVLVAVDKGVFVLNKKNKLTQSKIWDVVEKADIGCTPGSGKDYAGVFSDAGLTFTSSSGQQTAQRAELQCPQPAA
T1 sequence (P01024 749-1303, chain 2 of 3): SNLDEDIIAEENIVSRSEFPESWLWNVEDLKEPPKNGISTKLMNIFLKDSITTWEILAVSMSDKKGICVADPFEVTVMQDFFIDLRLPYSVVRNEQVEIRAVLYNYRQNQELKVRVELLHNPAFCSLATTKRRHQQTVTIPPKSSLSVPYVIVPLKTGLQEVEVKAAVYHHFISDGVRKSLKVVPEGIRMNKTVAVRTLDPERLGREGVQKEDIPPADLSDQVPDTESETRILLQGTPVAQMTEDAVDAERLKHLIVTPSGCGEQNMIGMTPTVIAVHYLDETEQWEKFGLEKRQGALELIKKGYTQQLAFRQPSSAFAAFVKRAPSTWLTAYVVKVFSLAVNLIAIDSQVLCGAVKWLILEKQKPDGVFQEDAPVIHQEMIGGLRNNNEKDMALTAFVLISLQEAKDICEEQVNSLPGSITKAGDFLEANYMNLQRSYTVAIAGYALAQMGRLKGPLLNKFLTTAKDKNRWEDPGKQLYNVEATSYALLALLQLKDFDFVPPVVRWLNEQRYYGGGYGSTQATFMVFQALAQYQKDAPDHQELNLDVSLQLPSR
T1 sequence (P01024 1321-1663, chain 3 of 3): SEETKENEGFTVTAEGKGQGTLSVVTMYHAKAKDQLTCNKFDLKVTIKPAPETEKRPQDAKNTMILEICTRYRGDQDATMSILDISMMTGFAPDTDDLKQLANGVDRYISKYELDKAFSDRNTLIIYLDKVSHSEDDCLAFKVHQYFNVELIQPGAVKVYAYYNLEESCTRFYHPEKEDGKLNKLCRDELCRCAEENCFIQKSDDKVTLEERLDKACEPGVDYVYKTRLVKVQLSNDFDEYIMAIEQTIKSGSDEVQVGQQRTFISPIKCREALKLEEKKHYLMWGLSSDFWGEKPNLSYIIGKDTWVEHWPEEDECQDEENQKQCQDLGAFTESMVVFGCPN
C3b, sequence (P01024 23-667, chain 1 of 2): as the sequence (P01024 23-667, chain 1 of 3) above
C3b, sequence (P01024 749-1663, chain 2 of 2): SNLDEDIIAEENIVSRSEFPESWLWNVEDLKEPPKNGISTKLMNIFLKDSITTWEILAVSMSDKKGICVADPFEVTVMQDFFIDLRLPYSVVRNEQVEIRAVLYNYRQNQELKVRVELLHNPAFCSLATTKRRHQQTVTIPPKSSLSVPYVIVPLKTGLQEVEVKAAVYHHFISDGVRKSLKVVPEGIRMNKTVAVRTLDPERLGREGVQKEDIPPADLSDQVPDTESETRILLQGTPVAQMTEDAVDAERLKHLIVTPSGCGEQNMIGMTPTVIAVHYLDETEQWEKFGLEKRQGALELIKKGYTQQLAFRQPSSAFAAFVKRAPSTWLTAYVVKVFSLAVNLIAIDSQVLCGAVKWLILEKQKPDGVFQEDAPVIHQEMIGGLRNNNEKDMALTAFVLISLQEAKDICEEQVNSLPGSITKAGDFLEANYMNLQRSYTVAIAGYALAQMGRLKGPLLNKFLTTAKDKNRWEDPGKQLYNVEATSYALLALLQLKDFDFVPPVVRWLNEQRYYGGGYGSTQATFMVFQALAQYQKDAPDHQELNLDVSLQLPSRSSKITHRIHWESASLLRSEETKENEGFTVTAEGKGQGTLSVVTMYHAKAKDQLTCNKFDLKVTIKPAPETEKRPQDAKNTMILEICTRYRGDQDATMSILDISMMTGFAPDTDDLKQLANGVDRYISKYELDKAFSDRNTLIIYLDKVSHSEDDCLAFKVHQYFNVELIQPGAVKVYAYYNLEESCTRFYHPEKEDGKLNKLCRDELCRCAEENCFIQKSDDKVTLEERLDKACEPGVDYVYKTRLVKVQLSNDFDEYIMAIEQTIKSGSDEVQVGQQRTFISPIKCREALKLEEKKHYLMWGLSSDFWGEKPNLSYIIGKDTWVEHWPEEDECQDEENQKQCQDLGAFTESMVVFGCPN

B1: AptC3-2 (structured_RNA)
RNA: GGGAGAAUUCAACUGCCAUCUAGGCAAAUCCGCGAGCGCCGGUACCGGUGGCGCAUGCCCACACAGCACUAAACGAGUACUACAAGCUUCUGGACUCGGU
Q: Does B1 bind (iC3b [1])?
A: no binding

B2: Apt[C3-GFP] (structured_RNA)
RNA: GGGAGCCUGAUGGCAGGGCGAAUUGGGUGGGGAAAGUCCUUAAAAGAGGGCCACCACAGAAGCAAUGGGCUUCUGGACUCGGUCCCGCUCGGCUAGAAGAAUAUGACGGAUUGACCGUAUCAGGGUAGCCGAGC
Q: What does the source list for B2?
A: binding result (C3b): binds; binding result (iC3b [2]): binds
